Measurements reported in the Human Domainome abundance scans (Beltran et al. 2025).

B1: POU domain, class 2, transcription factor 2, residues 200 to 269; numbered along this chain, P09086 (parent)
chain: LEELEQFARTFKQRRIKLGFTQGDVGLAMGKLYGNDFSQTTISRFEALNLSFKNMCKLKPLLEKWLNDAE

Variants of: B1
Assay: abundance fitness (aPCA) (normalised: wild type 0, dead -1); higher = more abundant; growth selection in yeast, the domain comes from the species named
Details: Homo sapiens

Abundance fitness, by site and new letter:
N35: S -0.078; D -0.095; Y 0; W -0.026; E 0.106; V -0.091; Q -0.104; P -0.017; R -0.022; H -0.114; M -0.049; T -0.203; I -0.15; F -0.029; A -0.016
T41: E -0.029; K -0.09; S -0.059; C 0.094; W -0.014; G -0.193; Y -0.078; H 0.023; M 0.04; L -0.041; F -0.114; V 0.024; D 0.029; A -0.048; I -0.108; R -0.179; Q -0.061; N -0.062
D36: Y 0.013; I -0.057; V -0.048; L -0.049; N -0.063; H -0.003; E -0.026; M -0.162; F 0.017; R -0.034; A -0.05; Q -0.047; G -0.06; C -0.12; S -0.05; P -0.122; W -0.052
K31: V -0.115; C -0.054; A -0.019; L -0.092; R 0.002; G -0.047; Q -0.04; S -0.033; D -0.114; N -0.166; E -0.064; T -0.036; M -0.168; P -0.142; I -0.136; Y -0.178; W -0.246; F -0.336; H -0.119
L27: I -0.069; R 0.006; N -0.019; H -0.043; W -0.105; D -0.012; S -0.073; Y 0.026; V 0.015; M -0.033; T -0.092; E -0.059; P -0.39; A 0.041; C -0.057; G -0.049
S38: K -0.055; C -0.023; N 0.044; W -0.157; E -0.015; V -0.081; T -0.004; D 0.241; P -0.065; M -0.085; Y -0.234; R -0.037; G 0.025; A -0.014; I -0.107; Q -0.054
F37: G -0.28; C -0.06; L -0.052; K -0.434; D -0.4; R -0.39; S -0.24; W -0.012; H -0.093; E -0.255; A -0.152; T -0.175; Y -0.048; I 0.088; V -0.065; M -0.024; Q -0.061
Q39: K -0.029; A -0.032; D 0.017; S 0.005; P 0.035; I -0.017; L -0.046; E 0.01; R -0.019; G -0.027; N -0.306; T 0.042; M -0.024; H -0.11; V -0.002; F -0.022; C -0.077
G26: D 0.047; C -0.105; E -0.023; V -0.022; Y -0.085; K -0.113; P -0.299; Q 0.042; T -0.014; M -0.131; A -0.067; L -0.064; F -0.18; W -0.023; R -0.165; I -0.157; H -0.109
D24: T -0.199; Y -0.095; W -0.285; V -0.169; S -0.091
Y33: A -0.057; I -0.076; L -0.024; D -0.036; S -0.041; R -0.17; T -0.016; V -0.06; E -0.074; M -0.055; P -0.068; Q -0.07; H -0.01; N -0.156; W -0.105; F -0.062; C -0.043; K -0.062
L32: K 0.01; Y 0; I -0.049; A -0.006; H -0.126; T -0.071; Q 0.04; W -0.201; G -0.08; F -0.093; S -0.01; D 0.037; N -0.163; R -0.022; M -0.021; V -0.098; P -0.209; C -0.083
G30: W -0.013; N 0.019; F -0.001; V -0.052; H -0.013; Q 0.107; Y -0.051; A -0.041; I -0.083; S 0.061; D -0.068; K -0.071; L -0.044; C -0.068; P -0.223; T 0.009; R -0.063
R44: C -0.057; E 0.088; A 0.04; D -0.06
S43: P -0.002; Q 0.095; G 0; E -0.018; I -0.024; T -0.05; K 0.062; N -0.046; C -0.149; H -0.034; D -0.049; V -0.098; A 0.005; F -0.227; L -0.07; W -0.047
G34: K -0.111; S -0.062; A -0.071; M -0.208; Q 0.087; I -0.248; W -0.207; R -0.132; Y -0.06; P -0.081; E 0.052; D -0.065; V -0.168; F -0.177; T -0.105; H -0.018; C -0.143; L -0.208; N -0.068
V25: K -0.894; R -0.696; Q -1.03; G -1.05; H -0.996; E -0.926; T -0.302; I -0.098; P -0.915; F -0.548; W -0.692; A -0.01; M -0.291; S -0.453; C -0.229
M29: A -0.131; Y -0.611; Q -0.463; C -0.076; T -0.075; F -0.146; E -0.976; H -0.681; N -0.616; S -0.552; W -0.557; K -0.95; D -0.314; L 0.072; V 0.003; P -0.664; R -0.655; I -0.211
T40: Q 0.009; P -0.072; R -0.021; G -0.036; L -0.078; C -0.038; S 0.032; K 0.232; M -0.058; D 0.02; H -0.161; I -0.285; F -0.041; Y 0.031; V 0.068; N -0.107; E -0.002
I42: M -0.122; W -0.818; H -1.01; Y -0.511; K -0.979; E -0.758; D -0.857; C -0.375; A -0.609; L -0.073; T -0.552; V -0.033; R -1.11; F -0.375; G -1.02; S -0.685; P -0.857; Q -0.559
A28: V -0.01; T 0.031; I -0.167; E 0.06; C -0.108; M -0.047; K -0.021; P -0.616; F -0.032; R -0.027; Q 0.061; S -0.079; H -0.064; D 0.024; Y -0.101; G -0.098; N -0.095
